From US20020090382A1, “Antiviral compounds and methods” (University of Pittsburgh of the Commonwealth System of …, priority 2000, published 2002)
Positions count from the first letter of the chain named. In names and notes the source's numbering stands.

B1: L25D (protein)
chain: KYALIDASLKMADPNRFRGKDLPVDDQLTDPPGVRRVYHIQAGLPDPFQPPSLPITVYYAVLERACRSVLLNAPSEAPQIVRGASEDVRKQPYNLTIAWFRMGGNCAIPITVMEYTECSYNKSLGACPIRTQPRWNYYDSFSAVSEDNLGFLMHAPAFETAGTYLRLVKINDWTEITQFILEHRAKGSCKYALPLRIPPSACLSPQAYQQGVTVDSIGMLPRFIPENQRTVAVYSLKIAGWHGPKAPYTSTLLPPELSETPNATQPELAPEDPEDSALLEDPVGTVAPQIPPNWHIPSIQDAATPYHPPATPNNMGLIAGAVGGSLLAALVICGIVYWMHRRTRKAPKRIRLPHIREDDQPSSHQPLFY
B2: L25H (protein)
chain: B1 chain with D25H
B3: L25T (protein)
chain: B1 chain with D25T
B4: D26H (protein)
chain: B1 chain with D25L, D26H

Key:
VD60 cells = assay: Transient complementation of gD-null virus KΔUS3-8Z, titers on VD60 cells; assay type: cell-based; conditions: relative to wild-type gD (100%) and gD− (0%); KΔUS3-8Z virus
Description: (§1) In a first transient complementation assay, several cell lines were employed. VD60 cells express wild-type gD endogenously which complements the deleted gD gene of KΔUS3-8Z for plaque formation, but only if the virus can initially infect using the gD product of the transfected gene. Thus, plaque formation on VD60 cells indicates complementation of gD's attachment/entry function by the transfected gene. CHO cells lack gD receptors and are resistant to HSV infection, but CHO cells transduced with HveA or HveC expression plasmids (CHO-HveA and CHO-HveC cells, respectively) are susceptible. KΔUS3-8Z misses the complete gD gene (US6) due to a large deletion extending from US3 to US8 and therefore offers no target for homologous recombination with transfected gD genes or the stable gD gene of VD60 cells. […] Since the progeny virus lacks gD, plaques will not form on these cells and virus entry was therefore determined by measurement of lacZ reporter gene expression.
(§2) To conduct the assay, Vero cells were transfected with LIPOFECTAMINE-PLUS (GIBCO) for 4 h at 37° C., the cell monolayers washed and incubated with DMEM/10% fetal bovine serum (FBS) for 16 h at 37° C., and the transfected cells infected with KΔUS3-8Z at an MOI of 3 for 2 h at 37° C. After removal of the medium and inactivation of residual extracellular virus by incubation of the monolayer with 0.1M glycine (pH 3.0) for 1 min at room temperature, fresh medium was added and the cells incubated at 37° C. for 48 hours. The medium was subsequently removed and temporarily stored on ice while the cells were being lysed by freeze-thawing and sonication. Cell debris was pelleted by low-speed centrifugation and the supernatant combined with the previously stored medium. Virus titers were determined on gD-complementing VD60 cells. Complementing activity was determined by infection of CHO-HveA, CHO-HveC, and control CHO-K cells. Infected cells were lysed in a buffer containing 1% NP-40, 1 mM MgCl2, 50 mM β-mercaptoethanol, and 4 mg/ml β-galatosidase substrate O-nitrophenyl β-D-galactopyranoside (ONPG, Sigma) in a total volume of 50 μl. The enzyme-substrate reaction was carried out at 37° C. and stopped by addition of an equal volume of 1M Na2CO3 after color development. β-galactosidase activity was measured by reading the absorbance at 420 nm. One hundred percent complementation was defined as the difference between the A420 values obtained for the wild-type (pSP72-gD) and negative control (pgD^−) gD plasmids. Relative complementation efficiencies were calculated as 100%×[A420(mutant)−A420(gD^−)]/[A420(wild type)−A420(gD^−)].

CHO-HveA cells = assay: Transient complementation of gD-null virus KΔUS3-8Z, entry into CHO-HveA cells (lacZ); assay type: cell-based, Chinese hamster; conditions: relative to wild-type gD (100%) and gD− (0%); KΔUS3-8Z virus, A420 β-galactosidase
Description: as §1, §2

CHO-HveC cells = assay: Transient complementation of gD-null virus KΔUS3-8Z, entry into CHO-HveC cells (lacZ); assay type: cell-based, Chinese hamster; conditions: relative to wild-type gD (100%) and gD− (0%); KΔUS3-8Z virus, A420 β-galactosidase
Description: as §1, §2

Row | Molecule | % Complementation VD60 (VD60 cells) | % Complementation CHO-HveA (CHO-HveA cells) | % Complementation CHO-HveC (CHO-HveC cells)
1 | B1 | 10% | 0% | 14%
2 | B2 | 14% | 0% | 12%
3 | B3 | 14% | 0% | 3%
4 | B4 | 17% | 10% | 11%
